# In patent US20230331848A1 (BIOSION, published 2023):
# Changes are numbered by the printed parent chain.
# T1: full length mouse PD-1 expressed on 293F-mouse PD-1 cells (mouse, UniProt Q02242 25-288)
# T1 construct: also called cell surface mouse PD-1
# T1 sequence: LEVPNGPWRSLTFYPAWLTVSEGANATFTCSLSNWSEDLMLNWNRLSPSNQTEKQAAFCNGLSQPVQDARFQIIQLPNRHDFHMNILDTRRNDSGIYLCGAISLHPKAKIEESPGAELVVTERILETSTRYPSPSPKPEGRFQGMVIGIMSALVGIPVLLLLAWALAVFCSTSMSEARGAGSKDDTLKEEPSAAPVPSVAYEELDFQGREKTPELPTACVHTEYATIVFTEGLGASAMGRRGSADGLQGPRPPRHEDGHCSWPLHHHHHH
# B1: mouse anti-PD-1 monoclonal antibody E1A9C8A7 (antibody, V domains shown)
# VH: QVQLQQSGAEVVRPGVSVRISCKGSGYTFSDYVMHWMKQSHGESLEWIGVISTYHIPAVYNQKFKGKATMTVDKSSSTVYLELARLTSEDSAIYYCAREVYGDSYYFDVWGAGTTVTVSS
# VL: DVLMTQIPLSLPVSLGDQVSISCRSSQSIVHSNGNTYLEWYLQKPGQSPKLLIYKVSNRFSGVPDRFSGSGSGTDFTLKISRVEAEDLGVYYCFQGSHVPYTFGGGTKLEIK
# notes: Hybridoma-derived mouse mAb purified on Protein A; also called Mouse E1A9C8A7
# B2: mouse anti-PD-1 monoclonal antibody E2G4E10B7 (antibody, V domains shown)
# VH: QVQLQQSGAELVRPGVSVKISCKGSGYTFTDYVMHWVRQSHAKSLEWIGVISTHFGDGVYNQKFKGKATMTVDKSSSTAYMELARLTSEDSAIYYCAREVYGDSWYFDVWGAGTTVTVSS
# VL: B1 VL with I7T, V19A, I29L, N33D, V83L
# notes: Hybridoma-derived mouse mAb; also called Mouse E2G4E10B7
# Columns and labels:
# [1] = target: T1, full length mouse PD-1 expressed on …; assay: cell-based binding FACS on 293F-mouse PD-1 cells (MFI); unit from the axis 'Con of mAb, nM.'
# Experimental: The binding activities of the mouse anti-PD-1 antibodies to mouse PD-1s expressed on cell surface were tested by flow cytometry (FACS), using Biosion in-house prepared 293F-mouse PD-1 cells expressing full length mouse PD-1 (SEQ ID NO.: 27) on cell membrane. The 293F-mouse PD-1 cells were prepared by transfecting 293F cells with a PCMV-T-P plasmid inserted with mouse PD-1 coding sequence between EcoR I and XbaI sites, following the instruction of lipofectamine 3000 transfection reagent (Thermo Fisher).
# In specific, the 293F-mouse PD-1 cells and GS-J2/PD-1 cells were respectively harvested from cell culture flasks, washed twice and re-suspended in PBS containing 2% v/v Fetal Bovine Serum (FACS buffer). Then, 2×10⁵ cells per well were incubated in 96 well-plates with 100 μl of the anti-PD1 antibodies or controls at various concentrations for 40 minutes on ice. […] Following an incubation of 40 minutes at 4° C. in dark, cells were washed three times and re-suspended in FACS buffer. Fluorescence was measured using a Becton Dickinson FACS Canto II-HTS equipment and plotted against antibody concentrations. Data was analyzed using GraphPad Prism software and EC₅₀ values were reported.
# [2] = target: T2, in house made human PD-1-Fc protein (human, biotin-labeled (sites not given)); assay: competitive ELISA: antibody pre-mixed with biotin-labeled human PD-1-Fc, added to coated human PD-L1-Fc (blocked ligand); unit from the axis 'Con of mAb, nM.'
# T2 construct: also called biotin-labeled human PD-1-Fc
# Experimental: The activities of the anti-PD1 antibodies of the disclosure to block PD-L1-PD1 binding were measured in a competitive ELISA.
# Briefly, 100 μl human PD-L1-Fc protein (prepared in-house with SEQ ID NO: 28) at 2 μg/mL in carbonate/bicarbonate buffer (pH 9.6) was coated on 96-well micro plates overnight at 4° C., Plates were washed with wash buffer (PBS+0.05% w/v Tween-20, PBST), and blocked with 5% w/v non-fatty milk in PBST for 2 hours at 37° C. […] After incubation at 37° C. for 40 minutes, plates were washed using wash buffer. […] Plates were washed again using wash buffer. Finally, TMB was added and the reaction was stopped using 1M H₂SO₄. The absorbance was read on a microplate reader using dual wavelength mode with 450 nm for TMB and 630 nm as the reference wavelength, then the OD (450-630) values were plotted against antibody concentrations. Data was analyzed using Graphpad Prism software and IC₅₀ values were reported.
# [3] = target: T3, cynomolgus PD-1-his protein (Cat#:PD1-05223, Acro biosystems Inc.) (cynomolgus, UniProt B0LAJ3 25-170); assay: indirect ELISA on coated cynomolgus PD-1-his; unit from the axis 'Con of mAb, nM.'
# T3 construct: Bought protein used in Biacore and indirect ELISA; also called monkey PD-1; Cyno PD-1
# Experimental: Briefly, 96-well micro plates were coated with 100 μl 2 μg/ml mouse PD-1-his (Cat#:50124-M08H, Sino Biological Inc) or 2 μg,/ml cynomolgus PD-1-his (Cat#:PD1-05223, Acro biosystems Inc.) in carbonate/bicarbonate buffer (pH 9.6) for 2 hours at 37° C. Plates were washed once with wash buffer (PBST, PBS+0.05% Tween-20) and then blocked with 200 μl blocking buffer (5% w/v non-fatty milk in PBST) for 2 hours at 37° C. […] ELISA plates were washed 4 times and incubated with Peroxidase AffiniPure goat anti-mouse IgG, Fcγ Fragment Specific (1:5000 dilution in PBST buffer, Cat#:115-035-071, Jackson ImmunoResearch Laboratories, Inc., 100 μl/well) or Peroxidase AffiniPure F(ab′)₂ Fragment Goat Anti-Human IgG, Fcγ fragment specific (Cat#:109-036-098, Jackson ImmunoResearch, for the controls) for 40 minutes at 37° C. After a final wash, plates were incubated with 100 μl/well TMB (Cat#:TMB-S-002, innoreagents) at room temperature. The reaction was stopped 3-10 minutes later with 50 μl/well 1M H₂SO₄, and the absorbance was read on a microplate reader using dual wavelength mode with 450 nm for TMB and 630 nm as the reference wavelength. Then the OD (450-630) values were plotted against antibody concentrations. Data was analyzed using GraphPad Prism software and EC₅₀ values were reported.
Binder,EC50 [1],IC50 [2],EC50 [3]
B1,1.27 nM,0.45 nM,0.121 nM
B2,0.87 nM,0.428 nM,0.166 nM
